Reference: article PMC4966504 (mAbs, 2015)
Values belong to the binder of their own block, whether it stands above or below them.

Key:
Experiment in all cases: flow cytometry on cells
[1] = biological target: human CXCR4, endogenous on 293X cells (Homo sapiens, UniProt P61073)
[2] = biological target: human CXCR4 A180D (Homo sapiens, UniProt P61073-1, A180D)
[3] = biological target: human CXCR4 (G-protein C-X-C chemokine receptor 4), expressed on CHO cells (Homo sapiens, UniProt P61073-1)
[4] = biological target: human CXCR4 P191A (Homo sapiens, UniProt P61073-1, P191A)
[5] = biological target: human CXCR4 E179A (Homo sapiens, UniProt P61073-1, E179A)
[6] = biological target: human CXCR4 D181A (Homo sapiens, UniProt P61073-1, D181A)
[7] = biological target: human CXCR4 D182A (Homo sapiens, UniProt P61073-1, D182A)
[8] = biological target: human CXCR4 A175D (Homo sapiens, UniProt P61073-1, A175D)
[9] = biological target: human CXCR4 N176VSE179A4 (Homo sapiens, UniProt P61073, N176VSE179A4)
[10] = biological target: human CXCR4 D181DRYI185A5 (Homo sapiens, UniProt P61073, D181DRYI185A5)
[11] = biological target: human CXCR4 L194W195A2 (Homo sapiens, UniProt P61073, L194W195A2)
[12] = biological target: human CXCR4 D187RFY190A4 (Homo sapiens, UniProt P61073, D187RFY190A4)

B1: MEDI3185 variant VH W52/Y52A/D53 to Ala (CDR2H) (antibody, V domains shown)
VH: QVQLVESGGGVVQPGRSLRLSCAASGFTFSNYVMHWVRQAPGKGLEWVAVIAAAGSNKYYADSVKGRFTISRDNSKNTLSLQMNSLRAEDTAVYYCERGEGYYGSGSRYRGYYYGMDVWGQGTTVTVSS
VL: DIQMTQSPSSLSASVGDRVTITCRASQGIRTDLGWYQQKPGKAPKRLIYAASSLQSGVPSRFSGSGSGTEFTLTISSLQPEDFATYYCLQHNSYPRTFGQGTKVEIK
binding result [1]: binds

B2: MEDI3185 variant VL Q27A/G28A/I29A (CDR1L) (antibody, V domains shown)
VH: QVQLVESGGGVVQPGRSLRLSCAASGFTFSNYVMHWVRQAPGKGLEWVAVIWYDGSNKYYADSVKGRFTISRDNSKNTLSLQMNSLRAEDTAVYYCERGEGYYGSGSRYRGYYYGMDVWGQGTTVTVSS
VL: DIQMTQSPSSLSASVGDRVTITCRASAAARTDLGWYQQKPGKAPKRLIYAASSLQSGVPSRFSGSGSGTEFTLTISSLQPEDFATYYCLQHNSYPRTFGQGTKVEIK
binding result [1]: binds

B3: MEDI3185 variant VL P95 to Ala (CDR3L) (antibody, V domains shown)
VH: QVQLVESGGGVVQPGRSLRLSCAASGFTFSNYVMHWVRQAPGKGLEWVAVIWYDGSNKYYADSVKGRFTISRDNSKNTLSLQMNSLRAEDTAVYYCERGEGYYGSGSRYRGYYYGMDVWGQGTTVTVSS
VL: DIQMTQSPSSLSASVGDRVTITCRASQGIRTDLGWYQQKPGKAPKRLIYAASSLQSGVPSRFSGSGSGTEFTLTISSLQPEDFATYYCLQHNSYARTFGQGTKVEIK
binding result [1]: binds

B8: MEDI3185 (antibody, V domains shown)
VH: QVQLVESGGGVVQPGRSLRLSCAASGFTFSNYVMHWVRQAPGKGLEWVAVIWYDGSNKYYADSVKGRFTISRDNSKNTLSLQMNSLRAEDTAVYYCERGEGYYGSGSRYRGYYYGMDVWGQGTTVTVSS
VL: DIQMTQSPSSLSASVGDRVTITCRASQGIRTDLGWYQQKPGKAPKRLIYAASSLQSGVPSRFSGSGSGTEFTLTISSLQPEDFATYYCLQHNSYPRTFGQGTKVEIK
Kd [2]: 0.32 nM
Kd [3]: 0.32 nM
Kd [4]: 0.36 nM
Kd [5]: 0.25 nM
Kd [6]: 0.31 nM
Kd [7]: 0.32 nM
Kd [8]: 0.21 nM
Kd [9]: 0.37 nM
Kd [10]: 0.28 nM
Kd [11]: 0.3 nM
Kd [12]: 0.37 nM

The next lines start with the values.

binding result [1]: binds
B4: MEDI3185 variant VL A50/A51 to Gly, S52 to Ala (CDR2L) (antibody, V domains shown)
VH: QVQLVESGGGVVQPGRSLRLSCAASGFTFSNYVMHWVRQAPGKGLEWVAVIWYDGSNKYYADSVKGRFTISRDNSKNTLSLQMNSLRAEDTAVYYCERGEGYYGSGSRYRGYYYGMDVWGQGTTVTVSS
VL: DIQMTQSPSSLSASVGDRVTITCRASQGIRTDLGWYQQKPGKAPKRLIYGGASLQSGVPSRFSGSGSGTEFTLTISSLQPEDFATYYCLQHNSYPRTFGQGTKVEIK

binding result [1]: binds
B5: MEDI3185 variant VH N31A/Y32A/V33A (CDR1H) (antibody, V domains shown)
VH: QVQLVESGGGVVQPGRSLRLSCAASGFTFSAAAMHWVRQAPGKGLEWVAVIWYDGSNKYYADSVKGRFTISRDNSKNTLSLQMNSLRAEDTAVYYCERGEGYYGSGSRYRGYYYGMDVWGQGTTVTVSS
VL: DIQMTQSPSSLSASVGDRVTITCRASQGIRTDLGWYQQKPGKAPKRLIYAASSLQSGVPSRFSGSGSGTEFTLTISSLQPEDFATYYCLQHNSYPRTFGQGTKVEIK

binding result [1]: binds
B6: MEDI3185 variant VL N92/S93/Y94 to Ala (CDR3L) (antibody, V domains shown)
VH: QVQLVESGGGVVQPGRSLRLSCAASGFTFSNYVMHWVRQAPGKGLEWVAVIWYDGSNKYYADSVKGRFTISRDNSKNTLSLQMNSLRAEDTAVYYCERGEGYYGSGSRYRGYYYGMDVWGQGTTVTVSS
VL: DIQMTQSPSSLSASVGDRVTITCRASQGIRTDLGWYQQKPGKAPKRLIYAASSLQSGVPSRFSGSGSGTEFTLTISSLQPEDFATYYCLQHAAAPRTFGQGTKVEIK

binding result [1]: binds
B7: MEDI3185 variant VH G54/S55/N56 to Ala (CDR2H) (antibody, V domains shown)
VH: QVQLVESGGGVVQPGRSLRLSCAASGFTFSNYVMHWVRQAPGKGLEWVAVIWYDAAAKYYADSVKGRFTISRDNSKNTLSLQMNSLRAEDTAVYYCERGEGYYGSGSRYRGYYYGMDVWGQGTTVTVSS
VL: DIQMTQSPSSLSASVGDRVTITCRASQGIRTDLGWYQQKPGKAPKRLIYAASSLQSGVPSRFSGSGSGTEFTLTISSLQPEDFATYYCLQHNSYPRTFGQGTKVEIK
